# Data published in publication PMC10102533.
# Tests used:
# [1] = target: PGLYRP1-mIgG1-Fc (not stated | mouse); assay: SDS-PAGE and Western blot with or without reducing agent
# [2] = target: mouse IgG2a-Fc (Fc only) (mouse); assay: as above
stoichiometry N [1],stoichiometry N [2],Substance
2,,PGLYRP1-mIgG1-Fc (Fc fusion)
,2,mouse IgG2a-Fc (Fc only) (domain or fragment)
